B1: SmBiT-C-CaSR-WT [not stated] / LgBiT-N-AP2σ-WT [not stated] (parent)
chain 1: not shown
chain 2: YGPDQRAQKKGDIILGGLFPIHFGVAAKDQDLKSRPESVECIRYNFRGFRWLQAMIFAIEEINSSPALLPNLTLGYRIFDTCNTVSKALEATLSFVAQNKIDSLNLDEFCNCSEHIPSTIAVVGATGSGVSTAVANLLGLFYIPQVSYASSSRLLSNKNQFKSFLRTIPNDEHQATAMADIIEYFRWNWVGTIAADDDYGRPGIEKFREEAEERDICIDFSELISQYSDEEEIQHVVEVIQNSTAKVIVVFSSGPDLEPLIKEIVRRNITGKIWLASEAWASSSLIAMPQYFHVVGGTIGFALKAGQIPGFREFLKKVHPRKSVHNGFAKEFWEETFNCHLQEGAKGPLPVDTFLRGHEESGDRFSNSSTAFRPLCTGDENISSVETPYIDYTHLRISYNVYLAVYSIAHALQDIYTCLPGRGLFTNGSCADIKKVEAWQVLKHLRHLNFTNNMGEQVTFDECGDLVGNYSIINWHLSPEDGSIVFKEVGYYNVYAKKGERLFINEEKILWSGFSREVPFSNCSRDCLAGTRKGIIEGEPTCCFECVECPDGEYSDETDASACNKCPDDFWSNENHTSCIAKEIEFLSWTEPFGIALTLFAVLGIFLTAFVLGVFIKFRNTPIVKATNRELSYLLLFSLLCCFSSSLFFIGEPQDWTCRLRQPAFGISFVLCISCILVKTNRVLLVFEAKIPTSFHRKWWGLNLQFLLVFLCTFMQIVICVIWLYTAPPSSYRNQELEDEIIFITCHEGSLMALGFLIGYTCLLAAICFFFAFKSRKLPENFNEAKFITFSMLIFFIVWISFIPAYASTYGKFVSAVEVIAILAASFGLLACIFFNKIYIILFKPSRNTIEEVRCSTAAHAFKVAARATLRRSNVSRKRSSSLGGSTGSTPSSSISSKSNSEDPFPQPERQKQQQPLALTQQEQQQQPLTLPQQQRSQQQPRCKQKVIFGSGTVTFSLSFDEPQKNAMAHRNSTHQNSLEAQKSSDTLTRHEPLLPLQCGETDLDLTVQETGLQGPVGGDQRPEVEDPEELSPALVVSSSQSFVISGGGSTVTENVVNS

Variants of: B1
Test: NanoBiT split-luciferase
Conditions: with LgBiT-N-AP2σ-WT; N = 10; read off a plot

Row | response | Variant
1 | 4.5 | chain 2 P993A
2 | 3 | chain 2 H991A
3 | 2.1 | chain 2 L994A L995A
4 | 3.8 | chain 2 R990A

Same assay, conditions: with LgBiT-N-AP2σ-WT; N = 7; read off a plot

Row | response | Variant
5 | 4.9 | chain 2 S985A
6 | 4.9 | chain 2 T987A
7 | 4.7 | chain 2 T989A
8 | 4.8 | chain 2 S959A
9 | 2.4 | chain 2 L994A L995A

Same assay, conditions: with LgBiT-N-AP2σ-WT; N = 6; read off a plot

Row | response | Variant
10 | 3.2 | chain 2 L994A L995A
11 | 3.6 | chain 2 R990A H991A E992A P993A L994A L995A
